{"source": "IntAct's records for PubMed 27754869", "parents": {"B1": {"name": "Natural cytotoxicity triggering receptor 3 (Homo sapiens), O14931 (parent)", "chain": "MAWMLLLILIMVHPGSCALWVSQPPEIRTLEGSSAFLPCSFNASQGRLAIGSVTWFRDEVVPGKEVRNGTPEFRGRLAPLASSRFLHDHQAELHIRDVRGHDASIYVCRVEVLGLGVGTGNGTRLVVEKEHPQLGAGTVLLLRAGFYAVSFLSVAVGSTVYYQGKCLTWKGPRRQLPAVVPAPLPPPCGSSAHLLPPVPGG", "partner": "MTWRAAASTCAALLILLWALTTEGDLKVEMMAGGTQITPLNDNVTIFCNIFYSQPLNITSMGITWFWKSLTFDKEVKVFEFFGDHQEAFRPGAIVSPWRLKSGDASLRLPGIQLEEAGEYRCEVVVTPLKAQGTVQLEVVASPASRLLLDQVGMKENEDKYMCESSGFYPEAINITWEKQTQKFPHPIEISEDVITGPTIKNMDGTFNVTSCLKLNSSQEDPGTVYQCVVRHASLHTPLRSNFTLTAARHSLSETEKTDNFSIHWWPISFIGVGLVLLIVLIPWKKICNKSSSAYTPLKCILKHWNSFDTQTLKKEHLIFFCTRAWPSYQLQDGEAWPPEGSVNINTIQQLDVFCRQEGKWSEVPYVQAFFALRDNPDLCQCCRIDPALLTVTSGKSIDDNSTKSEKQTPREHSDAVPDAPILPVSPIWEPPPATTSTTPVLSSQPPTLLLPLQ"}, "B2": {"name": "Natural cytotoxicity triggering receptor 3 (Homo sapiens), O14931 (parent)", "chain": "B1 chain"}}}
{"variants_of": "B1", "settings": "with nr3l1_human NCR3LG1, Q68D85"}
{"variant": "L140A", "effect of a mutation on the interaction": "increasing interaction strength"}
{"variant": "P132A", "effect of a mutation on the interaction": "with no effect"}
{"variant": "L134A", "effect of a mutation on the interaction": "decreasing interaction strength"}
{"variant": "E130A", "effect of a mutation on the interaction": "decreasing interaction strength"}
{"variant": "L141A", "effect of a mutation on the interaction": "with no effect"}
{"variant": "K129A", "effect of a mutation on the interaction": "decreasing interaction strength"}
{"variant": "R143A", "effect of a mutation on the interaction": "decreasing interaction strength"}
{"variant": "T138A", "effect of a mutation on the interaction": "decreasing interaction strength"}
{"variant": "V139A", "effect of a mutation on the interaction": "increasing interaction strength"}
{"variant": "Q133A", "effect of a mutation on the interaction": "decreasing interaction strength"}
{"variant": "H131A", "effect of a mutation on the interaction": "decreasing interaction strength"}
{"variant": "L142A", "effect of a mutation on the interaction": "increasing interaction strength"}
{"variant": "G137A", "effect of a mutation on the interaction": "with no effect"}
{"variant": "G135A", "effect of a mutation on the interaction": "decreasing interaction strength"}
{"variants_of": "B2", "settings": "with BAG6, P46379-2"}
{"variant": "L141A", "effect of a mutation on the interaction": "decreasing interaction strength"}
{"variant": "G135A", "effect of a mutation on the interaction": "increasing interaction strength"}
{"variant": "L140A", "effect of a mutation on the interaction": "with no effect"}
{"variant": "H131A", "effect of a mutation on the interaction": "with no effect"}
{"variant": "E130A", "effect of a mutation on the interaction": "increasing interaction strength"}
{"variant": "P132A", "effect of a mutation on the interaction": "with no effect"}
{"variant": "G137A", "effect of a mutation on the interaction": "with no effect"}
{"variant": "L134A", "effect of a mutation on the interaction": "with no effect"}
{"variant": "L142A", "effect of a mutation on the interaction": "decreasing interaction strength"}
{"variant": "T138A", "effect of a mutation on the interaction": "increasing interaction strength"}
{"variant": "V139A", "effect of a mutation on the interaction": "with no effect"}
{"variant": "Q133A", "effect of a mutation on the interaction": "with no effect"}
{"variant": "K129A", "effect of a mutation on the interaction": "decreasing interaction strength"}
{"variant": "R143A", "effect of a mutation on the interaction": "decreasing interaction strength"}
